Source: a protein production outcome set (Wang et al. 2014)

Experiment: label from the status in PepcDB records

| Sequence | protein production |
| --- | --- |
| MLIGPYTHDAFMEEARKFHGYPAPGLIIGGYMVEMARRALPEGILFDAISETGQCLPDAVQMLTPCTIGNGWLRIRNFGLYALSLFDKHTGVGVRVHIDSQKLERFPEIKAWFLKLKPKREQDTERLQQEIREAAFDLLTLRPVTIRPDALGHGGKGGTIVACPLCGEYHPSAFGGICRSCQGESPYEVGPGLSFPGQPELRAVPVEEAVGKHALHDMTRIVPGESKGAEFVAGQELGAGDVCRLQMMGRNRVYVREETGDMQGWVHEDEAARAFGELMPGDGIEPEGPVREGKINFRATRDGVLVVDTRRLEQFNLVPDVMCATRHTHGVVLAGTRVAGTRAIPLYLSTLNLAKATTLLEGGPLFSVAPMRKAKVGVLVTGTEVFRGIIEDKFAPIITQKANQLGCDMAGTVIAPDDAPLITRGVHDLLAAGADLIVTTAGLSVDPDDMTRKGLLDAGLTEMLHGVPVLPGTMTLIGRIGGAQVIGVPACALFFKTTALDLLLPRLLAGLSVTRLDLARMGHGGLCMECRSCSFPKCPFGRG | failed |
| MLIIAILCLGLLVAQGVASLILLSRLVKGARRRSPLAPVFLPEEGVRNVSVVVPTLNEAARVTPCLLGLAQQGPPLREILVVDSRSTDGTQAVVQARQKDNPRLQLLTDDPLPDNWVGRPWALNYGFRHSDPASEWILGIDADTQPQPGLVASVVQAAEEENYDILSLSPQFILQSPGEWWLQPALLMTLLYRFESAGVREQAPETVMANGQCFLCRRLVLEALGGYELAARSFCDDVTLARVAAQRGYRVGFLDGANLIRVRMYEGIGETWREWGRSLDLKDATVPARLWAEVIFLLLVQGLPILFFSLLLMLWGEDFDFLTLRLAIALNGFLLLVRWGMLLAIYPSYYRPSEKGAWSYWLSPLADPLAVTRIIISASQTPKQWRGRIYPGAS | failed |
| MLIIFASGFALRAGTVTVAGVYSEAHYQPLMYDMDSYYNLRLASNLLNEGELSEGGWDRYSYYPPGVPLDYPPLLPHLTVTLYLLFTWLLPGLTDTAFWLPAIIAPLAGVAVFAAARSLDCDDVSATTAGLLATAAPFYFMRTIPGFYDTDMFNLVLPLAILLTLHLSLRDGDWRMAVLSGALMGVFAAAWNGWQLIYSIMALSVILHSLLYRRREPLIFLITSTLLIVLMDPRAIPSIPVGLMKIPVARADPFPDPYANITELQRPGFDDVLMALGPGLLLAGLAGFRSLFRDWRDSMVLPVIILWTLTGAASLLWGIRFSELLTAPLLITSALFLADLGTASRVPPGFRRKLHVAVAIMVVLPSLIISTGQYSALHPRVDDGLLDAADYIRAKTPPDTVVISNWVHGHFFAFMARRPVNFDGRLAYIETAAKRGPGYPLDPRIPGVYREYWHDPGPNDHGPHLADEILSMLASSGDEAYLEVLNATGDPAGSAVILGDVLAVDGSSRAEYLQDRGLDPVASGRVASTLSRRSGYVLVTCDRLIDKGYWILYYGNWNFTGKTRKPVYSTGSIVQGWPLRTSDGLLWDGERISFNGLRVSELYLVDGGVRKVEGDPQGGLVAFVLYDRNRTVVLERGYEDSMFARLVLLGDGGGVFRAVMRSRDVTVWEPIRDWNT | failed |
| MLIILFLIQMILIVKALGLKGLFIFLALIFGLFVLCKVSLKVKLPRNKYSKVTWEDMPWLYDGVARMANKARISTPNIYIEDNPIPTAYSFQNSIVLSAGLLEILNEEEVLAVAAHEIGHIKNGDTVLFPLLRYGKYIMGIITAIIVIFATGFITKVVSFLVFVIYAFSLLKFLRKREFLADRVALQIAEVPYALKSALEELKFYEEALKTKEMPLPTIQPSIRREEKREPQIFPLPSTHPSYDERIARIIAIVEMYRRLEFLN | failed |
| MLIILTGLPSVGKSTFSKAFSKKMAEKNIDNIILGTDLIRESFPVWKESYEEFIRDSNNYLIKEALENKFSVIVDDTNYYNSKRRDLMNIAKECDTNYVTIYLKAPLNLLLKRNIERGQKIPNEVIKNMYEKFDTPGTKYAWDLPDITVDTTEKIDYNEILNEILEINENKNLKIEEDKIPKSEPVESDLVKIDSLTRNIVGNLIKTGKIDKKDIKLLSEIRKSFLKDCKKIESEKLDFEKIEKDFLDYLNKNLK | failed |
| MLIKKNALSILKIVFPIAVLLFVIYQSKKELTNLSFKRTLMVINGLERTDLFMLVLIGLLAVAAMSLYDYVLKYSLRLSITNGKVFRVSWIANSFNNVLGFGGLAGVGLRMMFYKEHTKDHKALVKGIAWLTSSMLLGLSVFSIFVAARVLPVDEVIHEKPWLWAVVIGFALILPLSLAVSKIKDRKAGDEENADKVKNPIFAYIGASVVEWLMAGTRHLFCFVRYGHSCRYQVCVRGVRHCGDRRNDQPRAGRLRLV | failed |
| MLIKLTGGTVYDPANGIDGQVRNLFIRDGRIVHSLNGATPDQEYDLRGKVVMAGAIDMHTHIGGGKVTIARNLLPEDHRADPEPRRGLMRAGCGHAAPSTLTTGYRYAEMGYTAGFEPAVLPINARQAHMEMADVPLLDVGGYVMLGSDDFFLRLLSAGSDQKLINDYVAWTIRSAKAIGIKVVNPGGISAFKFNQRMLDLDEKHVYYGVTPRQILKSLARAVHELGVPHPLHVHGCNLGVPGNVETTLNTISGIEGLPMHLTHIQFHSYGVEGDRKFSSGAARIAEAINANKNITIDVGQILFGQTVTASGDSMRQHANAGHAHPDKWVCMDIECDAGCGVVPFKYRDKNFVNALQWCIGLETFLLIDDPWRVFLTTDHPNGAPFTTYPHLIRLLMDKSFRNDMLATINPEAAALSTLGSIDREYSLYEIAIMTRAGAARLLGLTDRGHLGAGAAADITVYTDQADKEKMFTRPDYVFKDGELVVRNGEVVKVVWGNLHTVQPEFDNGIEARLRDYFDRYHTMKLDNFVINDWEIEGDGRSKILVHPCHQGTRSLEHHHHHH | failed |
| MLILKNSMASPHPFPWPQRFTVMALTFAWGLSLPVLAQTKSAVQWYNDGVDKLAAQNFSGAIADFTESIKLNDQDADAYYNRGYAKHVLGQYQAAITDYNQAISLNPEFAYALGNRCYAYFLLSQYDKAIQDCSNAIEINPNYADFYVYRGNSQSQLGNETTAIADYNDAIRINAQHANAYYNRALTHNRLKQDQQALADYNQSIQLDPDSAEAYFNRGLTQYRLGDEPKAIADLTKAAELFNAQEKKDMAQKAEAILTQIRAIDA | failed |
| MLINSEIISLSGSMYEDRSYQNEAIDFIASKLANYPGVALEAPTGSGKTMMALLGSLKYAYNGHLKILYLVRTNSQEEQVIRELRTISKNRKIRALPMQGRINLCILYKTADDLKEATAESLSKFCNSRKRQVMEGHQEACPYYTIKVRSKETKDFLFENLPTAEEFYEYAFTNNLCPYESIKASLSDADIVVAPYMYFLNKTVADRFLSHWGVSREQLIIVLDEAHNLPDIGRSLGSFRISIESLNRSEKEAQSFGDPELDRGVHVTDFIEMIRSTLERTIKERVKEDDVRIRFQEFKEYLMIMNKKSEKSIRDLNNYLYLFGEYVENEKEKAGKVPVSYCSSLAQRLEAMMDEDDAMYAAILSKSESGYIQASCLDPSSILSSLKESKTIHMSGTLEPFEFYSDVTGFDIPFRRIENVFPIENRFVSYYEGVSTKYDTLDENEIRKLASIIENIVNGVKRNTIVYFPSYAVMDKVIGSGLDFDFLQEKKNLDQTEFYDVVKKFRNGGKPLLAVSGGRLSEGMNFPGRELELILIAGIPFPRPDATNRALYDYYEMKYKKGWEYAVLAPAIIKIRQEIGRLIRGKDDHGACVILDKRAKQFRRFIPDLVKTDDPVNDINTFFSNFK | failed |
| MLIYEGHIDKLIRRGQEKGLDIFNLIRAAVINPVEHYGLNVGLLREGDPADFITVDDLKSFNVLSTFIDGECVYENGKVLFPMKLEHHHHHH | not failed |
| MLIYNLAIHSYLGCDSLALLPKANTLSKEKNINNADDTIKDQILASIDSFIYTKDLSGKYTYANQAVLDLFEKNLADVIGFDDTHFFDLALSKQLKANDRMVMDQVIRIENEESNFIRAKNETRIFKVVKKPLFDHLGNVNGICGISTDITVEKQLQEQVNEQSYLLETMLNNIDAHIYVKDCERTFLYVNNRVAELFGDKAENIIGKKDTDILPKEIAEHFYQSDKQVFETNQKQVIEETTHGENGDNCHYISTKVPFDRPDKLPALIGFSTDVTELFKLKEEFKLLANTDPLTNLYNRRFFIEQAEKEYQRAKRYSLSMTLISIDIDHFKSINDQFGHPAGDQVLIEIAKQLKASLRQTDILARIGGEEFSILLPETSAMSAMTFAERIKEEQSRLIITGDWQGEINLSVSIGVSSLIASDKAFDVLFSRADKALYQAKNTGRNTVCYL | failed |
| MLKELFVNLTILITFNYLFTHLFKERLVHKKDSISFQAVKGLACGLLGVILMVFGFTYQHSIIDLRNIPIMIAALYGGWVSTATALAMITAGRLLITMNTSALYSVIIICIAAIPSLIVSRRKKVQLKHAFYLLIITNSLISFSFYFLIDLHSYELHLYFWIISIAGGMLSLYIIDHETNAHLLFKQYKFQAHFDFLTGVYNRRKFEETTKALYQQAADTPHFQFALIYMDIDHFKTINDQYGHHEGDQVLKELGLRLKQTIRNTDPAARIGGEEFAVLLPNCSLDKAARIAERIRSTVSDAPIVLTNGDELSVTISLGAAHYPNNTEQPGSLPILADQMLYKAKETGRNRVCFSEKKE | failed |
| MLKIYVVDNGGQWTHREWRVLRELGVDTKIVPNDIDSSELDGLDGLVLSGGAPNIDEELDKLGSVGKYIDDHNYPILGICVGAQFIALHFGASVVKAKHPEFGKTKVSVMHSENIFGGLPSEITVWENHNDEIINLPDDFTLAASSATCQVQGFYHKTRPIYATQFHPEVEHTQYGRDIFRNFIGICASYREIQKENFQH | not failed |
| MLKKITCYTVLYIFILLNQPIQAQTYVIPDANFKNYLALNIPYVLNSNQELIISNAKIFTGTINCVGMNIEDLSGLQYFYKLTQLNCNSNQLTFLPSLDSLKQLQHMWVYNNKLTSIPSVNQLTNLQTLNVKNNQLTNLPSLTGMTALKSLDCSSNKLTALPDLSTLLNLEEMYCYINFITNIPSVSNLLHLKIFNIENNAIALLPDISQNTKLEILQFDLNQIETIPPLTTLTALKQLIFAHNKISTLPDLSANTALFIITGDNNQLTHIPDLSGFDNLTHVELSHNQLTFEDILPSSKHPQFSTVFNIQPQDSLNVNQPVSAVKGSTITLPLQFDLAVSGSTYNWYKNNIYLSSTTIPVLTLSNITEMNAGRYTCIITNNTSRLTGITLHARSYSILVEPCIKFSYINYEITANDCSKGAAIQIDHTQISALNTPLTYALHPLNNQSSITSASAVLNDVMPGRYSLTISDVNNCSVELQNYIFIPVPAGCMDSFTPNGDGLEDTYLIDKPGYTKIYNKNGTLIRTLNTPAAWDGSDESGKLCPMGYYIIIIDGKEKTGVVLIN | failed |
| MLKLAQAEEAEAKRGKLKIFLGYAAGVGKTYAMLQAARERRHEGRDVVAAYVESHGRPETDALLEGLEILPAARIEYQGVMLPELDIDGVLARRPQLALVDELAHTNAPGSRHEKRWQDVEELLAAGIDVFTTVNVQHFESLNDVVAQITGIAVRETVPDRLLDLAAEIRLVDIPPEDLLQRLREGKVYVPEQAAFAAEKFFRAGNLIALRELSLRRAAVRVDEEMRAYMEARAIPGPWPAAERLLVSISGSPFSERLIRTTRRLADELKAPWFTVYVETPGNGRHEQENRKRVWKDLRLAESLGAQVATVTATSVAEALIDYARRHNVTRIVVGKPAKPRWREFLRLPLVDRIIRLSGAIDVHVVSYEPAEAGKGPVLPVRRGPISFSGYLASLALVVAASLACLLLRPFLAPTNMVMIYLLAVVLAALRLGLKPAILTAFLGVLAFDFFFIPPHLTFAVADTQYLITFVALFTVGVVISTLVSTVRERAEAVREREEQTASLYYLSRDLAAAADIETLVAAVIRNIGETLFARAAVLLPEGDRLRVAAASKGLKPDVKEMAVADWAFRNRQTAGQGTETLASAGFLYLPLQTSGSVLGVLGVRLKNDADYRSTQVRRMLDAFTSQTAMALERVQLSRQAEQAQILQARENLERALLNSISHDLRTPLVAITGALDTLRDKVHTLADESRLELLDTAWEEAERLNRFVGNLLDMTRLESGAIKLKRELSDVQDLIGCALAALERRIGERGIDVRLAPDLPLVRIDMVLMTQVLVNLLDNALKYSPPDSGVEITARVDGGRLRIEMADRGPGIPEQDLKRVFDKFYRIAVPEGAQGTGLGLSICKGIVEAHGGSIRAENRTGGGLRVIVTLPLAGGAKEGVSHGP | failed |
